Values of other authors as cited in publication PMC3491057, “Proliferating Cell Nuclear Antigen (PCNA) Interactions in Solution Studied by NMR” (PLoS ONE, 2012).
pKd: −log10 of the molar value.

How the values were obtained:
[1] = molecular target: p21 (p2120) 141-160 (Homo sapiens) (UniProt P38936)
[2] = molecular target: p21 (p2122) 139-160 (Homo sapiens) (UniProt P38936)
[3] = molecular target: p21 87-164 (Homo sapiens) (UniProt P38936)
[4] = molecular target: Fen-1 (Homo sapiens) (UniProt P39748); assay: SPR
Fen-1 (Homo sapiens), sequence (P39748 whole entry): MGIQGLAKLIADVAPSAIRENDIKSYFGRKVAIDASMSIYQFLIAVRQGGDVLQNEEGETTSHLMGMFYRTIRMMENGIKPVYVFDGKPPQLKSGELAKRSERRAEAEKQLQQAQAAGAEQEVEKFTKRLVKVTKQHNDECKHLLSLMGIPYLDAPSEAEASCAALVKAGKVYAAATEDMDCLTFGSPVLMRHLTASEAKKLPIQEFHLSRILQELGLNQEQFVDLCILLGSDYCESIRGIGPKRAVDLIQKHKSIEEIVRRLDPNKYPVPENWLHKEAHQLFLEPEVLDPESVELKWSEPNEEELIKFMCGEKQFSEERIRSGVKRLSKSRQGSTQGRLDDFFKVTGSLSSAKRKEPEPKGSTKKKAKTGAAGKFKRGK

PCNA, sequence (P12004 whole entry): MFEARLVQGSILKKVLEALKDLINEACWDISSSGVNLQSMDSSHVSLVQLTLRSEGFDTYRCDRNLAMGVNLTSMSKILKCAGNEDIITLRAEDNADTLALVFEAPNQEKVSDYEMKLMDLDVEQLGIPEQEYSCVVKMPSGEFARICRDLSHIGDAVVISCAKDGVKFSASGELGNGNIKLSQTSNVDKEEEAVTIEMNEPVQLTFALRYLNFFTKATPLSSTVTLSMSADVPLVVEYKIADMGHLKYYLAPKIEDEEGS
p21 87-164 (Homo sapiens), sequence (P38936 87-164): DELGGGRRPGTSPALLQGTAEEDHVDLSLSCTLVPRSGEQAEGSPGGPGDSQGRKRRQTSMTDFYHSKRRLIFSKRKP
p21 (p2122) 139-160 (Homo sapiens), sequence (P38936 139-160): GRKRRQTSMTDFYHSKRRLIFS
p21 (p2120) 141-160 (Homo sapiens), sequence (P38936 141-160): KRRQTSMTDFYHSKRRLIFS

Q: Which results are given for PCNA (from UniProt P12004)?
A: pKd [1]: 7.06; pKd [2]: 7.08; pKd [3]: 7.82; pKd [4]: 7.22
